Experimental data published in patent publication US20120316071A1 (published 2012).

What was measured:
[1] = molecular target: T1, Recombinant Human DLL4 (delta-like protein 4) (human, UniProt Q9NR61 27-524); test: ECL binding assay on immobilized DLL4, Fab at 0.04 µM
T1 construct: Bought recombinant human DLL4 (R&D Systems Cat#1506-D4/CF); also called rHuman DLL4; Delta-like ligand 4

[2] = molecular target: T2, Recombinant Human DLL4 (R&D Systems Cat#1506-D4/CF) (human, UniProt Q9NR61 27-529); test: ECL 96-well plate assay (MSD), 0.1 µM Fab, plate coated with 30 µg/mL DLL4
T2 construct: Bought recombinant protein, coated on the plate; also called delta-like protein 4; rHuman DLL4

[3] = molecular target: T2, Recombinant Human DLL4 (R&D Systems …); test: ECL 96-well plate assay (MSD), 0.02 µM Fab, plate coated with 15 µg/mL DLL4
[4] = molecular target: T3, Recombinant Human DLL4 (delta-like protein 4) (human, UniProt Q9NR61 27-524); test: ELISA, plate-coated DLL4, Fab 25 nM
T3 construct: also called rHuman DLL4

[5] = molecular target: T3, Recombinant Human DLL4 (delta-like …); test: ELISA, plate-coated DLL4, Fab 50 nM
[6] = molecular target: T3, Recombinant Human DLL4 (delta-like …); test: ELISA, plate-coated DLL4, Fab 100 nM
[7] = molecular target: T3, Recombinant Human DLL4 (delta-like …); test: ELISA, plate-coated DLL4, Fab 12.5 nM
[8] = molecular target: T3, Recombinant Human DLL4 (delta-like …); test: ELISA, plate-coated DLL4, Fab 6.25 nM
[9] = molecular target: T3, Recombinant Human DLL4 (delta-like …); test: ELISA, plate-coated DLL4, Fab 3.125 nM

B1: Fab VH5-51_IGHD5-18*01>3_IGHJ4*01 & V3-4_IGLJ1*01 (Fab, V domains shown)
VH: EVQLVQSGAEVKKPGESLKISCKGSGYSFTSYWIGWVRQMPGKGLEWMGIIYPGDSDTRYSPSFQGQVTISADKSISTAYLQWSSLKASDTAMYYCARRGYSYGYDYFDYWGQGTLVTVSS
VL: QTVVTQEPSFSVSPGGTVTLTCGLSSGSVSTSYYPSWYQQTPGQAPRTLIYSTNTRSSGVPDRFSGSILGNKAALTITGAQADDESDYYCVLYMGSGISYVFGTGTKVTVL
notes: Fab expressed in E. coli; VH was cloned into Plasmid A (CH1, His6 and Flag tags) and VL into Plasmid E (lambda CL); also called wildtype; parent Hit Fab VH5-51_IGHD5-18*01>3_IGHJ4*01 & V3-4_IGLJ1*01
- Signal/Noise (0.04 µM) [1]: 14.7

B2: Fab VH5-51_IGHD5-18*01>3_IGHJ4*01 & V3-4_IGLJ1*01 (Fab, V domains shown)
VH: EVQLVQSGAEVKKPGESLKISCKGSGYSFTSYWIGWVRQMPGKGLEWMGIIYPGDSDTRYSPSFQGQVTISADKSISTAYLQWSSLKASDTAMYYCARRGYSYGYDYFDYWGQGTLVTVSS
VL: QTVVTQEPSFSVSPGGTVTLTCGLSSGSVSTSYYPSWYQQTPGQAPRTLIYSTNTRSSGVPDRFSGSILGNKAALTITGAQADDESDYYCVLYMGSGISYVFGTGTKVTVL
notes: Tested as Fab from E. coli; VH was cloned into Plasmid A, which supplies CH1 and His6 and Flag tags; The lambda VL was cloned into Plasmid E, which supplies lambda CL; also called wildtype; parent Hit Fab VH5-51_IGHD5-18*01_IGHJ4*01 & V3-4_IGLJ1*01
- Signal/Noise [2]: 24
- Signal/Noise [3]: 15.2

B3: Fab VH5-51_IGHD5-18*01>3_IGHJ4*01 Y103A & V3-4_IGLJ1*01 (Fab, V domains shown)
VH: EVQLVQSGAEVKKPGESLKISCKGSGYSFTSYWIGWVRQMPGKGLEWMGIIYPGDSDTRYSPSFQGQVTISADKSISTAYLQWSSLKASDTAMYYCARRGYSAGYDYFDYWGQGTLVTVSS
VL: QTVVTQEPSFSVSPGGTVTLTCGLSSGSVSTSYYPSWYQQTPGQAPRTLIYSTNTRSSGVPDRFSGSILGNKAALTITGAQADDESDYYCVLYMGSGISYVFGTGTKVTVL
notes: Heavy chain CDR3 alanine mutant of the parent Fab; Fab format as for the parent
- Signal/Noise [2]: 4
- Signal/Noise [3]: 1.5

B4: Fab VH5-51_IGHD5-18*01>3_IGHJ4*01 G100A & V3-4_IGLJ1*01 (Fab, V domains shown)
VH: EVQLVQSGAEVKKPGESLKISCKGSGYSFTSYWIGWVRQMPGKGLEWMGIIYPGDSDTRYSPSFQGQVTISADKSISTAYLQWSSLKASDTAMYYCARRAYSYGYDYFDYWGQGTLVTVSS
VL: QTVVTQEPSFSVSPGGTVTLTCGLSSGSVSTSYYPSWYQQTPGQAPRTLIYSTNTRSSGVPDRFSGSILGNKAALTITGAQADDESDYYCVLYMGSGISYVFGTGTKVTVL
notes: Fab with CH1 (Plasmid A, His6 and Flag tags) and lambda CL (Plasmid E)
- Signal/Noise (0.04 µM) [1]: 30.4

B5: Fab VH5-51_IGHD5-18*01>3_IGHJ4*01 Y103A & V3-4_IGLJ1*01 (Fab, V domains shown)
VH: EVQLVQSGAEVKKPGESLKISCKGSGYSFTSYWIGWVRQMPGKGLEWMGIIYPGDSDTRYSPSFQGQVTISADKSISTAYLQWSSLKASDTAMYYCARRGYSAGYDYFDYWGQGTLVTVSS
VL: QTVVTQEPSFSVSPGGTVTLTCGLSSGSVSTSYYPSWYQQTPGQAPRTLIYSTNTRSSGVPDRFSGSILGNKAALTITGAQADDESDYYCVLYMGSGISYVFGTGTKVTVL
notes: as for B4
- Signal/Noise (0.04 µM) [1]: 1.2

B6: Fab VH5-51_IGHD5-18*01>3_IGHJ4*01 Y105A & V3-4_IGLJ1*01 (Fab, V domains shown)
VH: EVQLVQSGAEVKKPGESLKISCKGSGYSFTSYWIGWVRQMPGKGLEWMGIIYPGDSDTRYSPSFQGQVTISADKSISTAYLQWSSLKASDTAMYYCARRGYSYGADYFDYWGQGTLVTVSS
VL: QTVVTQEPSFSVSPGGTVTLTCGLSSGSVSTSYYPSWYQQTPGQAPRTLIYSTNTRSSGVPDRFSGSILGNKAALTITGAQADDESDYYCVLYMGSGISYVFGTGTKVTVL
notes: as for B4
- Signal/Noise (0.04 µM) [1]: 9.6

B7: Fab VH5-51_IGHD5-18*01>3_IGHJ4*01 G104A & V3-4_IGLJ1*01 (Fab, V domains shown)
VH: EVQLVQSGAEVKKPGESLKISCKGSGYSFTSYWIGWVRQMPGKGLEWMGIIYPGDSDTRYSPSFQGQVTISADKSISTAYLQWSSLKASDTAMYYCARRGYSYAYDYFDYWGQGTLVTVSS
VL: QTVVTQEPSFSVSPGGTVTLTCGLSSGSVSTSYYPSWYQQTPGQAPRTLIYSTNTRSSGVPDRFSGSILGNKAALTITGAQADDESDYYCVLYMGSGISYVFGTGTKVTVL
notes: as for B4
- Signal/Noise (0.04 µM) [1]: 15.5

B8: Fab VH5-51_IGHD5-18*01>3_IGHJ4*01 G104A & V3-4_IGLJ1*01 (Fab, V domains shown)
VH: EVQLVQSGAEVKKPGESLKISCKGSGYSFTSYWIGWVRQMPGKGLEWMGIIYPGDSDTRYSPSFQGQVTISADKSISTAYLQWSSLKASDTAMYYCARRGYSYAYDYFDYWGQGTLVTVSS
VL: QTVVTQEPSFSVSPGGTVTLTCGLSSGSVSTSYYPSWYQQTPGQAPRTLIYSTNTRSSGVPDRFSGSILGNKAALTITGAQADDESDYYCVLYMGSGISYVFGTGTKVTVL
notes: as for B3
- Signal/Noise [2]: 41.5
- Signal/Noise [3]: 12.5

B9: Fab VH5-51_IGHD5-18*01>3_IGHJ4*01 Y105A & V3-4_IGLJ1*01 (Fab, V domains shown)
VH: EVQLVQSGAEVKKPGESLKISCKGSGYSFTSYWIGWVRQMPGKGLEWMGIIYPGDSDTRYSPSFQGQVTISADKSISTAYLQWSSLKASDTAMYYCARRGYSYGADYFDYWGQGTLVTVSS
VL: QTVVTQEPSFSVSPGGTVTLTCGLSSGSVSTSYYPSWYQQTPGQAPRTLIYSTNTRSSGVPDRFSGSILGNKAALTITGAQADDESDYYCVLYMGSGISYVFGTGTKVTVL
notes: as for B3
- Signal/Noise [2]: 1
- Signal/Noise [3]: 1

B10: Fab VH5-51_IGHD5-18*01>3_IGHJ4*01 S102A & V3-4_IGLJ1*01 (Fab, V domains shown)
VH: EVQLVQSGAEVKKPGESLKISCKGSGYSFTSYWIGWVRQMPGKGLEWMGIIYPGDSDTRYSPSFQGQVTISADKSISTAYLQWSSLKASDTAMYYCARRGYAYGYDYFDYWGQGTLVTVSS
VL: QTVVTQEPSFSVSPGGTVTLTCGLSSGSVSTSYYPSWYQQTPGQAPRTLIYSTNTRSSGVPDRFSGSILGNKAALTITGAQADDESDYYCVLYMGSGISYVFGTGTKVTVL
notes: as for B4
- Signal/Noise (0.04 µM) [1]: 2

B11: Fab VH5-51_IGHD5-18*01>3_IGHJ4*01 S102A & V3-4_IGLJ1*01 (Fab, V domains shown)
VH: EVQLVQSGAEVKKPGESLKISCKGSGYSFTSYWIGWVRQMPGKGLEWMGIIYPGDSDTRYSPSFQGQVTISADKSISTAYLQWSSLKASDTAMYYCARRGYAYGYDYFDYWGQGTLVTVSS
VL: QTVVTQEPSFSVSPGGTVTLTCGLSSGSVSTSYYPSWYQQTPGQAPRTLIYSTNTRSSGVPDRFSGSILGNKAALTITGAQADDESDYYCVLYMGSGISYVFGTGTKVTVL
notes: as for B3
- Signal/Noise [2]: 4.7
- Signal/Noise [3]: 1.8

B12: Fab VH5-51_IGHD5-18*01>3_IGHJ4*01 G100A & V3-4_IGLJ1*01 (Fab, V domains shown)
VH: EVQLVQSGAEVKKPGESLKISCKGSGYSFTSYWIGWVRQMPGKGLEWMGIIYPGDSDTRYSPSFQGQVTISADKSISTAYLQWSSLKASDTAMYYCARRAYSYGYDYFDYWGQGTLVTVSS
VL: QTVVTQEPSFSVSPGGTVTLTCGLSSGSVSTSYYPSWYQQTPGQAPRTLIYSTNTRSSGVPDRFSGSILGNKAALTITGAQADDESDYYCVLYMGSGISYVFGTGTKVTVL
notes: as for B3
- Signal/Noise [2]: 53.3
- Signal/Noise [3]: 24.2

B13: Fab VH1-46_IGHD6-6*01_IGHJ1*01 S102A/S103P/S104F/H111F (APFF) & L6_IGKJ1*01 S28N/S30D/S31H N53H (Fab, V domains shown)
VH: QVQLVQSGAEVKKPGASVKVSCKASGYTFTSYYMHWVRQAPGQGLEWMGIINPSGGSTSYAQKFQGRVTMTRDTSTSTVYMELSSLRSEDTAVYYCAREEYAPFSAEYFQFWGQGTLVTVSS
VL: EIVLTQSPATLSLSPGERATLSCRASQNVDHYLAWYQQKPGQAPRLLIYDASHRATGIPARFSGSGSGTDFTLTISSLEPEDFAVYYCQQRSNWPPWTFGQGTKVEIKR
notes: Fab made in E. coli: VH in plasmid A (CH1, His6 and Flag tags), VL in plasmid C (kappa CL); also called H:APFF & L:NDH N53H; APFF / NDH/N53H
- ELISA signal at 25 nM Fab [4]: 0.238
- ELISA signal at 50 nM Fab [5]: 0.416
- ELISA signal at 100 nM Fab [6]: 0.608
- ELISA signal at 12.5 nM Fab [7]: 0.167
- ELISA signal at 6.25 nM Fab [8]: 0.109
- ELISA signal at 3.125 nM Fab [9]: 0.089

B14: Fab VH1-46_IGHD6-6*01_IGHJ1*01 S102A/S103P/S104F/H111F (APFF) & L6_IGKJ1*01 S28N/S30D/S31H S52T (Fab, V domains shown)
VH: QVQLVQSGAEVKKPGASVKVSCKASGYTFTSYYMHWVRQAPGQGLEWMGIINPSGGSTSYAQKFQGRVTMTRDTSTSTVYMELSSLRSEDTAVYYCAREEYAPFSAEYFQFWGQGTLVTVSS
VL: EIVLTQSPATLSLSPGERATLSCRASQNVDHYLAWYQQKPGQAPRLLIYDATNRATGIPARFSGSGSGTDFTLTISSLEPEDFAVYYCQQRSNWPPWTFGQGTKVEIKR
notes: Fab made in E. coli: VH in plasmid A (CH1, His6 and Flag tags), VL in plasmid C (kappa CL); also called H:APFF & L:NDH S52T; APFF / NDH/S52T
- ELISA signal at 25 nM Fab [4]: 0.323
- ELISA signal at 50 nM Fab [5]: 0.49
- ELISA signal at 100 nM Fab [6]: 0.653
- ELISA signal at 12.5 nM Fab [7]: 0.215
- ELISA signal at 6.25 nM Fab [8]: 0.13
- ELISA signal at 3.125 nM Fab [9]: 0.099

B15: Fab VH1-46_IGHD6-6*01_IGHJ1*01 S102A/S103P/S104F/H111F (APFF) & L6_IGKJ1*01 S28N/S30D/S31H S52L (Fab, V domains shown)
VH: QVQLVQSGAEVKKPGASVKVSCKASGYTFTSYYMHWVRQAPGQGLEWMGIINPSGGSTSYAQKFQGRVTMTRDTSTSTVYMELSSLRSEDTAVYYCAREEYAPFSAEYFQFWGQGTLVTVSS
VL: EIVLTQSPATLSLSPGERATLSCRASQNVDHYLAWYQQKPGQAPRLLIYDALNRATGIPARFSGSGSGTDFTLTISSLEPEDFAVYYCQQRSNWPPWTFGQGTKVEIKR
notes: Fab made in E. coli: VH in plasmid A (CH1, His6 and Flag tags), VL in plasmid C (kappa CL); also called H:APFF & L:NDH S52L; APFF / NDH/S52L
- ELISA signal at 25 nM Fab [4]: 0.335
- ELISA signal at 50 nM Fab [5]: 0.546
- ELISA signal at 100 nM Fab [6]: 0.791
- ELISA signal at 12.5 nM Fab [7]: 0.215
- ELISA signal at 6.25 nM Fab [8]: 0.142
- ELISA signal at 3.125 nM Fab [9]: 0.095
